This is an account of results in patent US20080242608.

The data set deals with T1, GST-FOXO3 peptide P2 (amino acids 154-259), O43524.
T1 chain: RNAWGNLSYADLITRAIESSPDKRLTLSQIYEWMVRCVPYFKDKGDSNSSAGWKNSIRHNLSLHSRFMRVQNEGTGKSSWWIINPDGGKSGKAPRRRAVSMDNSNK

B1: FLAG-MST1 (protein)
chain: METVQLRNPPRRQLKKLDEDSLTKQPEEVFDVLEKLGEGSYGSVYKAIHKETGQIVAIKQVPVESDLQEIIKEISIMQQCDSPHVVKYYGSYFKNTDLWIVMEYCGAGSVSDIIRLRNKTLTEDEIATILQSTLKGLEYLHFMRKIHRDIKAGNILLNTEGHAKLADFGVAGQLTDTMAKRNTVIGTPFWMAPEVIQEIGYNCVADIWSLGITAIEMAEGKPPYADIHPMRAIFMIPTNPPPTFRKPELWSDNFTDFVKQCLVKSPEQRATATQLLQHPFVRSAKGVSILRDLINEAMDVKLKRQESQQREVDQDDEENSEEDEMDSGTMVRAVGDEMGTVRVASTMTDGANTMIEHDDTLPSQLGTMVINAEDEEEEGTMKRRDETMQPAKPSFLEYFEQKEKENQINSFGKSVPGPLKNSSDWKIPQDGDYEFLKSWTVEDLQKRLLALDPMMEQEIEEIRQKYQSKRQPILDAIEAKKRRQQNF
As for B1, the “in vitro kinase assay (phosphorylation of GST-FOXO3 peptides)” value is “MST1 robustly phosphorylated the P2 fragment”.
